Data published in patent publication US11370833B2, “Antibody formulations” (Genentech, Inc., priority 2014, dated 2022).

Key:
Type in all cases: physicochemical
[1] = Formulation composition study: FT-NIR percent trehalose crystallization; conditions: trehalose 34.2% (wt/v), fast frozen, 12 months at −20° C.
Method: (§1) Fast freezing was accomplished by quench cooling fifty microliter sample aliquots drop-wise into liquid nitrogen. The freezing endpoint was determined by the increased opacity and the sinking of the sphere from the surface into a stainless steel mesh collection basket. After freezing, one-milliliter aliquots of bulk drug substance frozen pellets were removed from the liquid nitrogen and transferred into sterile, pre-chilled 5 cc glass vials. The vials were then stored on frozen CO2, and sealed with 20 mm Lyo-Stoppers. The formulation screen samples were fast frozen in 96-well microplates using liquid nitrogen. Immediately after the microplates were frozen, the samples were nucleated by scratching the ice surface with a 24 gauge needles (BD, Franklin Lakes, N.J.).
The formulation screen sample microplates were stored at two temperatures (−20±2° C., and −40±2° C.). The freezer temperature was monitored using a Yokogawa temperature monitoring system (Yokogawa Meters and Instruments Corporation, Tokyo, Japan).
Sample microplates for SEC analysis were stored isothermally for up to 365 days. Following frozen storage, microplates were thawed on the lab counter bench under ambient conditions (approximately 22° C.) prior to analysis. Control (0 day) samples were thawed immediately following completion of the freezing process. […]
The percent trehalose crystallization was determined using near infrared diffuse reflectance spectroscopy. […] Using these methods, sample NIR spectra were recorded from 10,000-4,000 cm^−1 using 32 averaged scans with 4 cm^−1 resolution on a Nicolet Antaris FT-Near IR Analyzer equipped with an integrating sphere module (Thermo Fisher Scientific, Waltham, Mass.). Percent trehalose crystallization was calculated using normalized peak intensity ratios of bands at 4306 cm^−1 and 4291 cm^−1 (Connolly, B., et al. (2010) Anal. Biochem. 399(1):48-57). […] Low volume (300 microliter) formulation screen samples were lyophilized and then analyzed for percent trehalose crystallization using the same method.

[2] = FT-NIR trehalose crystallization after frozen storage (freeze rate and storage temperature studies)
Method: To prepare the samples for slow and normal freezing, two milliliter sample aliquots were dispensed into autoclaved 5 cc glass vials and sealed with 20 mm Lyo-Stoppers using aseptic technique in a ventilated biosafety hood with laminar air flow. Slow freezing was accomplished by placing sample vials in a lyophilizer on pre-cooled shelves and held between −1° C. and −3° C. for 24 hours.
(§2) Normal freezing was accomplished by placing sample vials in a freezer at −20° C. until samples were completely frozen. To control for supercooling, ice was nucleated by applying frozen CO2 to the side of each vial until ice formation.
as §1
Samples frozen at the three freeze rates (slow, normal, and fast) by the methods described were transferred to three freezer units with set points of −20° C., −14° C., and −8° C. with a range of ±2° C. for frozen storage. The freezer temperature was monitored using a Yokogawa temperature monitoring system (Yokogawa Meters and Instruments Corporation, Tokyo, Japan). Sample vials were pulled after 0, 1, 2, 3, 6, 9 and 12 months of isothermal, frozen storage and placed on the lab counter bench under ambient conditions (approximately 22° C.) and allowed to thaw prior to analysis.
Samples intended for trehalose crystallization determination were first freeze-dried using a LyoStar II lyophilizer unit controlled by LyoManager II software (FTS Systems, Stone Ridge, N.Y.). The frozen samples were placed on a pre-cooled shelf and held at −35° C. for 7 hours prior to primary drying. Primary drying was achieved under a system pressure of 150 μm Hg by linearly increasing the shelf temperature to 20° C. at a rate of 0.2° C./min, followed by a 40 hour hold at 20° C. Secondary drying was performed by linearly increasing shelf temperature to 30° C. at 0.2° C./min, followed by an 8 hour hold at 30° C. Thermocouples were placed in various sample vials to monitor temperature during freeze-drying. Following secondary drying, sample vials were stoppered while still under vacuum to prevent samples from hydrating prior to analysis. Low volume (300 microliter), formulation screen samples were lyophilized in 96-well glass plates (Zinsser, Germany) using the same lyophilization method.
The percent trehalose crystallization was determined using near infrared diffuse reflectance spectroscopy. Data collection, calibration, and analysis methods used in this study were adapted from previous work focused on characterizing the spectral differences between amorphous trehalose and crystalline trehalose polymorphs (Connolly, B., et al. (2010) Anal. Biochem. 399(1):48-57). Using these methods, sample NIR spectra were recorded from 10,000-4,000 cm^−1 using 32 averaged scans with 4 cm^−1 resolution on a Nicolet Antaris FT-Near IR Analyzer equipped with an integrating sphere module (Thermo Fisher Scientific, Waltham, Mass.). Percent trehalose crystallization was calculated using normalized peak intensity ratios of bands at 4306 cm^−1 and 4291 cm^−1 (Connolly, B., et al. (2010) Anal. Biochem. 399(1):48-57). Data analysis was conducted using a linear regression analysis with MATLAB (R2007a, The MathWorks, Natick, Massachussetts) (Connolly, B., et al. (2010) Anal. Biochem. 399(1):48-57). […]

[3] = Visual trehalose crystallization in frozen trehalose solutions with pH indicating dye; conditions: 2.0, 4.0 and 8.0% (wt/v) trehalose, 20 mM histidine-acetate pH 5.5; normal freeze rate, −20° C. for 6 days
Method: Additional solutions were prepared with 0.0, 2.0, 4.0, and 8.0% (wt/v) trehalose in 20 mM histidine-acetate, at pH 5.5, and Water for Injection. Fifty microliters of pHydrion (pH Range: 0-7) pH-indicator dye (Micro Essential Laboratory, NY) was dispensed into a 10 cc glass vial and allowed to evaporate. Approximately four milliliters of the various trehalose formulations were added to the vial and the dye was allowed to dissolve in the solution. Photographs of frozen trehalose solutions were obtained using an Olympus Stylus 770SW digital camera (Olympus America Inc., NJ) in supermacro mode.
as §2
It is of significant interest to understand if trehalose crystallization impacts protein stability at pharmaceutically relevant (≤10% wt/v) concentrations. To evaluate the impact of nominal trehalose concentration on excipient crystallization, solutions were prepared with 0.0, 2.0, 4.0 and 8.0% (wt/v) trehalose dihydrate in the presence of pH indicating dye to better visualize crystallization. The samples were frozen using the normal freeze rate and stored at −20° C. for 6 days.

[4] = Turbidity analysis and visual inspection for precipitates; conditions: fast freeze samples
Method: The turbidity of the samples was measured by recording the average absorbance from 340-360 nm in a quartz cuvette with 1-cm path length (Eckhardt, B. M., et al. (1991) Pharm. Res. 8:1360-4) on an HP8453 spectrophotometer using Chemstation software (Agilent Technologies, Santa Clara, Calif.). Sterile water for injection was used to blank the instrument prior to analyses. Turbidity analysis of formulation screen samples was performed on a UV transparent, Corning half area, 96-well microplate using Spectramax M2 instrument (Molecular Devices, Sunnyvale). The turbidity was measured against a Sterile Water for Injection blank and the turbidity value measured by recording the average of the absorbance from 340-360 nm.

[5] = Fast freeze, 12 months frozen storage at −8° C.
[6] = Fast freeze, 12 months frozen storage at −14° C.
[7] = Fast freeze, 12 months frozen storage at −20° C.
[8] = Normal freeze, 12 months frozen storage at −8° C.
[9] = Normal freeze, 12 months frozen storage at −14° C.
[10] = Normal freeze, 12 months frozen storage at −20° C.
[11] = Slow freeze, 12 months frozen storage at −8° C.
[12] = Slow freeze, 12 months frozen storage at −14° C.
[13] = Slow freeze, 12 months frozen storage at −20° C.

## OC[C@H]1O[C@H](O[C@H]2O[C@H](CO)[C@@H](O)[C@H](O)[C@H]2O)[C@H](O)[C@@H](O)[C@@H]1O [trehalose]
[1]; [bevacizumab]=0 mg/mL
  percent crystallized trehalose: 86%
[2]; frozen storage, data not shown
  time at which trehalose crystallization reaches a plateau: ≤ 2 weeks
[3]
  visual trehalose crystallization after induced nucleation: visually observed

## Bevacizumab: recombinant humanized anti-VEGF IgG1 monoclonal antibody; 25 mg/mL in 5.4% trehalose, 51 mM sodium phosphate pH 6.2, 0.04% polysorbate 20
[4]
  precipitates by turbidity analysis and visual inspection: formation of precipitates
[1]; [bevacizumab]=25 mg/mL
  percent crystallized trehalose: 61%
[1]; [bevacizumab]=100 mg/mL
  percent crystallized trehalose: 47%
[2]; 12 month samples, fast freeze
  trehalose crystallization by FT-NIR, fast freeze samples: measurable amounts of trehalose crystallization
[2]; 12 month samples, slow and normal freeze
  trehalose crystallization by FT-NIR, slow and normal freeze samples: no measurable amounts of trehalose crystallization
[2]; [5]
  Amorphous Trehalose: 3.8 % wt/v
  Crystallized Trehalose: 1.6 % wt/v
[2]; [6]
  Amorphous Trehalose: 2.9 % wt/v
  Crystallized Trehalose: 2.5 % wt/v
[2]; [7]
  Amorphous Trehalose: 3.0 % wt/v
  Crystallized Trehalose: 2.5 % wt/v
[2]; [8]
  Amorphous Trehalose: 5.2 % wt/v
  Crystallized Trehalose: 0.3 % wt/v
[2]; [9]
  Amorphous Trehalose: 5.1 % wt/v
  Crystallized Trehalose: 0.3 % wt/v
[2]; [10]
  Amorphous Trehalose: 5.1 % wt/v
  Crystallized Trehalose: 0.3 % wt/v
[2]; [11]
  Amorphous Trehalose: 5.2 % wt/v
  Crystallized Trehalose: 0.2 % wt/v
[2]; [12]
  Amorphous Trehalose: 5.2 % wt/v
  Crystallized Trehalose: 0.3 % wt/v
[2]; [13]
  Amorphous Trehalose: 5.1 % wt/v
  Crystallized Trehalose: 0.3 % wt/v
